From the supplement of paper PMC12764529
± gives the half width of the 95% confidence interval.

Legend:
[1] = folding stability dG unfold from chymotrypsin proteolysis; higher = more stable
Summary of the method: (§1)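 Mini-proteins designed to be under 80 residues and free of cysteine were carried in a PA-tagged cDNA display construct and digested with trypsin and with chymotrypsin. Each protease was applied at 11 threefold-diluted concentrations, alongside a no-protease condition, before sequencing. K50 came from Bayesian fitting of the sequencing counts, and unfolding free energy was obtained by comparing it with a sequence-predicted unfolded-state K50 and a shared folded-state K50, for each protease separately or for both together. Designs were retained only if their AlphaFold2 dimer inter-PAE exceeded 15.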

[2] = folding stability dG unfold (combined trypsin and chymotrypsin); higher = more stable
Summary of the method: as §1

[3] = folding stability dG unfold from trypsin proteolysis; higher = more stable
Summary of the method: as §1

Sequence	folding stability dG unfold [1] [kcal/mol]	folding stability dG unfold [2] [kcal/mol]	folding stability dG unfold [3] [kcal/mol]
SAGMKYRIVIENENGEKIEFEKLEDGTIKMTIEKDGKKEEITIKVPPGMTIEELLKKFPNAKIVKIEKVSAG [r5_259_TrROS_Hall]	3.45 ± 0.065	3.23 ± 0.096	2.78 ± 0.069
SAGMLGEEAIKDVKLELKEAPENEELVFEDTFPVGDKIARIRIVLKLPKNGGYEIKDIPIEVMAPEEAESAG [r5_96_TrMRF]	-0.177 ± 0.42	< -1	-0.469 ± 0.27
SAGMLPPEETVTLTLTFPASSPLSLEEILARTPDVEVLSLKREALPDDTVRLTITVRPDHVARVRAALASAG [r5_554_JUSTAS]	4.63 ± 0.06	4.32 ± 0.09	3.37 ± 0.054
SAGMMKRIVVTARFPADEMTLDEFVELILAKLPGVKPVRVEILSVRPRPDGSYEVTVLLLVEAPPDVDASAG [r5_682_TrMRF]	4.216 ± 0.032	4.23 ± 0.048	4.38 ± 0.071
SAGMMPLSHPEAREKAIEFAKKGYLVYVIEFENGESQVIVLESEEEIEELIKELPKPIKKIYVIPPLPESAG [r5_481_TrMRF]	3.054 ± 0.017	2.79 ± 0.089	2.11 ± 0.054
SAGMMVVVELTVGFEPDEIEPEEIREAIEEHAAEVEIDPNPETDILPIRVIAEPGKIEAIVDALKEAGGSAG [r5_378_TrMRF]	0.0668 ± 0.19	0.671 ± 0.22	1.08 ± 0.069
SAGMNKIYRLNEPVKNITFSSSELENLFKDPNIDRIAVFHPDKPAIIPFPDGKISGEFPPNITIVLFGSAGG [r19_152_TrMRF]	-0.0733 ± 0.5	0.385 ± 0.2	0.661 ± 0.15
SAGMNPNNPNVKTTTVTYTFPLPATESVEEAVERLKAEAEAAGKPIKTVEVTVERTPEDTVVIKATFVSSAG [r5_65_JUSTAS]	1.71 ± 0.057	1.59 ± 0.093	1.34 ± 0.072
SAGMPEPRVFEIPNEGSESDLRDAVRELAEELRPSGREVRLVVEVGGRPREYRLEEVDRFPPDFRVVLGSAG [r5_626_TrMRF]	0.324 ± 0.16	0.125 ± 0.12	-0.362 ± 0.25
SAGMPGKVVTVTVPVPPELTRLTVTATAPDGSSSTFTLPPGVATTVTFTSPSSSDLSVTVTFPDGSTTGSAG [r5_664_JUSTAS]	1.16 ± 0.052	1.07 ± 0.05	0.849 ± 0.017
SAGMPIKAKVLIFDPVNPVPKEFEFDVEDLDELVEKIREELGVEVVVDPESGVVVVDTPDGSLIVIEFDSAG [r5_937_TrMRF]	2.93 ± 0.077	3.01 ± 0.043	3.08 ± 0.093
SAGMPKPIRLLVRNPETGKYFLVEVEEPEELVTVTLLDPETGEVRAVFEGPLEEIIAALEAEGFEVEPVSAG [r5_291_TrMRF]	4.438 ± 0.042	4.442 ± 0.036	4.47 ± 0.16
SAGMPKPLVLPVVLPDDGATVEVVFDPVEKRIEIRVFKPGHRERAREFAEGIAALFEELGYEVEITDDSAGG [r19_354_TrMRF]	1.27 ± 0.091	1.91 ± 0.12	2.3 ± 0.084
SAGMPLASVEVEIEKLPDGTYRVRARITIWDPVTGKPLREVEFEGPFESPEAAEAEALKKALEVLEADSAGG [r19_255_TrMRF]	4 ± 0.11	4.06 ± 0.13	4.25 ± 0.18
SAGMPPVKVEIEVYPVRVEGELLYIAKIVRPDGSVLVIAFKPEELIEAIKKEFPDIEEIKFSPFETPPESAG [r5_25_TrMRF]	3.579 ± 0.022	3.48 ± 0.054	3.3 ± 0.095
